Results on three molecules are retold here after patent US20240309360A1 (GOVERNING COUNCIL OF THE UNIVERSITY OF TORONTO, published 2024).

Holding throughout (experiment): BioID2 proximity labelling, HEK293 cells
The target in assay [1] is T1, SUZ12 tagged with BirA-FLAG (human; Aquifex aeolicus, UniProt Q15022 1-739).
T1 construct: not shown: BioID2 biotin ligase (BirA from Aquifex aeolicus) tag

Assay [2] concerns the target T2, SRF (Serum Response Factor) tagged with BirA-FLAG (human; Aquifex aeolicus, UniProt P11831 1-508).
T2 construct: not shown: BioID2 biotin ligase (BirA from Aquifex aeolicus) tag
T2 sequence (looked up): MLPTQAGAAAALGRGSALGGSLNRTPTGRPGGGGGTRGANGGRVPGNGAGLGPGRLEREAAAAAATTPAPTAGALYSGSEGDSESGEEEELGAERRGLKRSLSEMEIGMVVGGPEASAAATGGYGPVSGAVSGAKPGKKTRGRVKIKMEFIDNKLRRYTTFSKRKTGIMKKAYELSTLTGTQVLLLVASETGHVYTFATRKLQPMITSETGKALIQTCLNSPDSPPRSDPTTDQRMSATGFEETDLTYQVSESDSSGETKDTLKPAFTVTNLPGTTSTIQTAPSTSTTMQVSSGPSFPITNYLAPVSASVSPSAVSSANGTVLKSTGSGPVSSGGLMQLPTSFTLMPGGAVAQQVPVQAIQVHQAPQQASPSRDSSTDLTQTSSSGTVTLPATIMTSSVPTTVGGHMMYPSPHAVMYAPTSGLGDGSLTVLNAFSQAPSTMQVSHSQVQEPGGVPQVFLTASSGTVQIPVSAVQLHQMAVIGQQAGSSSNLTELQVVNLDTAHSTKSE

A further assay deals with T3, CBP (human, UniProt Q92793 2-2442).
T3 construct: Endogenous prey identified by mass spectrometry; also called CBP/p300 (with p300)

The next assay concerns the target T4, p300 (human, UniProt Q09472 2-2414).
T4 construct: Endogenous prey identified by mass spectrometry; also called EP300; CBP/p300 (with CBP)

T4 sequence (Q09472 2-2414 limits assumed): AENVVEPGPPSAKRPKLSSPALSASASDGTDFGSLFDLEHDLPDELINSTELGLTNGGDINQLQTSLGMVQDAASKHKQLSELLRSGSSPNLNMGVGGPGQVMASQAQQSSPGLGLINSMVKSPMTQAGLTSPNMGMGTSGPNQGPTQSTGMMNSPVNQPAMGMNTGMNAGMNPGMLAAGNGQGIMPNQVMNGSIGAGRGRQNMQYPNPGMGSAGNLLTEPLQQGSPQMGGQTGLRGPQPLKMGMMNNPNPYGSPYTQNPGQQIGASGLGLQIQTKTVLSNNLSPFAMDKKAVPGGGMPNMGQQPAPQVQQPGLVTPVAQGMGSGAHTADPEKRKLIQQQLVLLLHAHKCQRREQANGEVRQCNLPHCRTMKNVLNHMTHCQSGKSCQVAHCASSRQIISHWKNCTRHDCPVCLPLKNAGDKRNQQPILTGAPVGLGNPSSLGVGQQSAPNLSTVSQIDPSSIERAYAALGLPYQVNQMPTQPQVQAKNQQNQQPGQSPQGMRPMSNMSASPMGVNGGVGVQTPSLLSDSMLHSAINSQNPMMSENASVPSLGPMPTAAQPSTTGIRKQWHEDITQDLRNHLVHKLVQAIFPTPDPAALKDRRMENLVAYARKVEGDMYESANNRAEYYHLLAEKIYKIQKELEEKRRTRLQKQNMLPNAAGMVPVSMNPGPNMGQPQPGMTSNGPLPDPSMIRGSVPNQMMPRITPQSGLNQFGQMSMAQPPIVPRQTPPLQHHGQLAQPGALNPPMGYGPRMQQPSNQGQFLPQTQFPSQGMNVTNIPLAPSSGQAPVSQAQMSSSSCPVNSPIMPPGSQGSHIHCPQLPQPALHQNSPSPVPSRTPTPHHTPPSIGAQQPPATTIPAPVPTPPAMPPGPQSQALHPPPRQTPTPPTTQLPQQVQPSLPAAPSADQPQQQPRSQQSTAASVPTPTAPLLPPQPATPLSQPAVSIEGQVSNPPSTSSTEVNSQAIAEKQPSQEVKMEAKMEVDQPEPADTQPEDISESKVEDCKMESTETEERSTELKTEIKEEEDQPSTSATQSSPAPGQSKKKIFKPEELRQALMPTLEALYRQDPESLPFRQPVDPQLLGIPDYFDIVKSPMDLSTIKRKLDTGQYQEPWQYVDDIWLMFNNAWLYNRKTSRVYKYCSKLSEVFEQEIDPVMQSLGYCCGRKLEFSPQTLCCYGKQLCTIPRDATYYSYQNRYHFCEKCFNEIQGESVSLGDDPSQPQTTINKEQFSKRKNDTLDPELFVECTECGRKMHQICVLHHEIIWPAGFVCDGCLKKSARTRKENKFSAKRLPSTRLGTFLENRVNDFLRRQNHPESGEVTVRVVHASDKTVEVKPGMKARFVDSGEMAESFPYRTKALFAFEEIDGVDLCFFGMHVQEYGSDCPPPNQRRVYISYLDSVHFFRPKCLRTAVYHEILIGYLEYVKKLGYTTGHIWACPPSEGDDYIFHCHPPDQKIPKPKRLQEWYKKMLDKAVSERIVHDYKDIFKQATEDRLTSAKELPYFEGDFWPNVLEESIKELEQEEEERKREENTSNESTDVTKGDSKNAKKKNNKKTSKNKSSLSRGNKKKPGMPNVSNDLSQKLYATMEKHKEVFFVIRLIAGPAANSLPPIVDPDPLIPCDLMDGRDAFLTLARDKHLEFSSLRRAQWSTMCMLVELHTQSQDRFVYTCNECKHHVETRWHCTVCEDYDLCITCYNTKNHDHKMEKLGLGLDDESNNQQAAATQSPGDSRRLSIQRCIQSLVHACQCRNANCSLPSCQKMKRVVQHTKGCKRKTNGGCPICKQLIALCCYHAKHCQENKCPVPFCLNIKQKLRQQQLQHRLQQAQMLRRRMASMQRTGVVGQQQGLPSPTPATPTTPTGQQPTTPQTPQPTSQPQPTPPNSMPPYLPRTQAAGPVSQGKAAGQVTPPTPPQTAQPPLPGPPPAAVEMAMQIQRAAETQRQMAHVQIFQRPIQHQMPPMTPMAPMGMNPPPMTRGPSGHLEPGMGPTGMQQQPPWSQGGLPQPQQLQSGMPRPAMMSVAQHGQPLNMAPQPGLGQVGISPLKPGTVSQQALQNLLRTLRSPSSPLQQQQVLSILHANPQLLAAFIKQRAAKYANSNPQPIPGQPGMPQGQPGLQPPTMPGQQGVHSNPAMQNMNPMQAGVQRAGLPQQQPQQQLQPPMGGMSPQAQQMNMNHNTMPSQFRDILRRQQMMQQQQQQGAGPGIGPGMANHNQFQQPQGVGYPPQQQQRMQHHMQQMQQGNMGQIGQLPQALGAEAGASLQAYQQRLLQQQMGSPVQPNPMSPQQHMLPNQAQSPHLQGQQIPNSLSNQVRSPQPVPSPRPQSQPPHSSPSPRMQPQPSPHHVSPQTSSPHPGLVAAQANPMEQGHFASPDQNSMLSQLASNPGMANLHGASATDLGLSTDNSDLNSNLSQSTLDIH
T3 sequence (Q92793 2-2442 limits assumed): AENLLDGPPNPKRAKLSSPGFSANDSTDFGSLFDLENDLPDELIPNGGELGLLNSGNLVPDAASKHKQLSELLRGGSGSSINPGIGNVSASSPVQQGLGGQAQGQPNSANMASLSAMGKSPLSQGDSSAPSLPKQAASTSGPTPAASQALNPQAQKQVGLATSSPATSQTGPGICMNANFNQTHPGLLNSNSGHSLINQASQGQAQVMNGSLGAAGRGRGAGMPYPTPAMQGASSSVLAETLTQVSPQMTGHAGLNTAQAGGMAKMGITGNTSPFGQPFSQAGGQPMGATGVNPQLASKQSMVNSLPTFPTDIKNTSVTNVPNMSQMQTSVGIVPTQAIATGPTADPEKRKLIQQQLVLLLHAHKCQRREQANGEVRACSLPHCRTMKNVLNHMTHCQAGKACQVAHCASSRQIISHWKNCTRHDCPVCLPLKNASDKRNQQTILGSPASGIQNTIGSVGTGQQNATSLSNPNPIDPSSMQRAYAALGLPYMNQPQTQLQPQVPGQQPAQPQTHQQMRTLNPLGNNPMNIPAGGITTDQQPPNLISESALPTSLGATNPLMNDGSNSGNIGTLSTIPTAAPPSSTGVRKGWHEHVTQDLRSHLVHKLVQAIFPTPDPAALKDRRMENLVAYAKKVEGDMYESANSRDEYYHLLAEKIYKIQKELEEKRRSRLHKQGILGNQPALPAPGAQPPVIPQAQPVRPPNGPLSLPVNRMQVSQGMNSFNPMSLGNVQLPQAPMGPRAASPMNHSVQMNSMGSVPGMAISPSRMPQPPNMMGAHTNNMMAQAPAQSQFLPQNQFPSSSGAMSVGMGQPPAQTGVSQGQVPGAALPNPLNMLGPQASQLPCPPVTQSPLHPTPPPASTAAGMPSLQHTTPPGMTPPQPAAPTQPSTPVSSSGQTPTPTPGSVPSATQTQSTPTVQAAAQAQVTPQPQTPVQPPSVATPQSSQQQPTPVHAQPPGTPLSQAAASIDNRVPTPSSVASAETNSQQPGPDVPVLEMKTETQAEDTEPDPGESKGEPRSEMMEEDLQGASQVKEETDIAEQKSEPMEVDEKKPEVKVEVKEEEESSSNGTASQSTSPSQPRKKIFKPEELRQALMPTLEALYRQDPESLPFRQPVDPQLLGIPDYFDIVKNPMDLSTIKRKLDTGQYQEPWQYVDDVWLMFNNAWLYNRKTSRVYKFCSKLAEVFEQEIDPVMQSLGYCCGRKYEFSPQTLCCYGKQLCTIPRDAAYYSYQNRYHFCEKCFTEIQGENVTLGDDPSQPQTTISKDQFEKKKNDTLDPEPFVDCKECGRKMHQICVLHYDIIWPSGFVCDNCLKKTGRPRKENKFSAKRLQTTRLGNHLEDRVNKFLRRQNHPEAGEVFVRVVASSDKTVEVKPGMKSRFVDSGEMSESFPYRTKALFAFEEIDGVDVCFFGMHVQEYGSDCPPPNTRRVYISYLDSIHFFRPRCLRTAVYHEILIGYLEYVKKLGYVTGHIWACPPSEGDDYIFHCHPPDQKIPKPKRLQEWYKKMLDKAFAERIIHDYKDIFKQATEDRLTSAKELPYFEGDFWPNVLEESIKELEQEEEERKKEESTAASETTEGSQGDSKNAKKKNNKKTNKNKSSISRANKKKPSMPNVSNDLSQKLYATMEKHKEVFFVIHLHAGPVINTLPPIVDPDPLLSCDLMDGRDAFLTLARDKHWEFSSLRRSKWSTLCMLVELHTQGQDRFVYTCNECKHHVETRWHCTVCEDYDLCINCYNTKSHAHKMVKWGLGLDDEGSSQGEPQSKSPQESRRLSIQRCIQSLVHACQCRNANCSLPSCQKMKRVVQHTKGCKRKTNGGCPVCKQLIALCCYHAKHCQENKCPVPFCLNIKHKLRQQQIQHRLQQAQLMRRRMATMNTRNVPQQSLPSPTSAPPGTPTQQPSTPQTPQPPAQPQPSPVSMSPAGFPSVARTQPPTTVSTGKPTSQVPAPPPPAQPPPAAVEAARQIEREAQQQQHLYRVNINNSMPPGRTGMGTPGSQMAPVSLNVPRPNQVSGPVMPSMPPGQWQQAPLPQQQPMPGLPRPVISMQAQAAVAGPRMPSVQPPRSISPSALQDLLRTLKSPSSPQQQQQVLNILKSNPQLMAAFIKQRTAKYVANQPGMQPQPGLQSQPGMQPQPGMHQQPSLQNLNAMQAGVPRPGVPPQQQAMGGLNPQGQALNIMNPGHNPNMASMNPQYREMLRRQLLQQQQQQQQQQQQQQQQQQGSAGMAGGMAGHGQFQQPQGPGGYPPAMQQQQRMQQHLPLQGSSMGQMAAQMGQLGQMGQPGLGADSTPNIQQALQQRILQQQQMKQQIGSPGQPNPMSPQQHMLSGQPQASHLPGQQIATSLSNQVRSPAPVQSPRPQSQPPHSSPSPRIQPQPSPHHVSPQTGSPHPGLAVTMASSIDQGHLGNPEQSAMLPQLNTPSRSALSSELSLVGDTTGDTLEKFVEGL

B1: MTF2/PCL2 (other, human, UniProt Q9Y483 1-593, looked up)
chain: MRDSTGAGNSLVHKRSPLRRNQKTPTSLTKLSLQDGHKAKKPACKFEEGQDVLARWSDGLFYLGTIKKINILKQSCFIIFEDSSKSWVLWKDIQTGATGSGEMVCTICQEEYSEAPNEMVICDKCGQGYHQLCHTPHIDSSVIDSDEKWLCRQCVFATTTKRGGALKKGPNAKALQVMKQTLPYSVADLEWDAGHKTNVQQCYCYCGGPGDWYLKMLQCCKCKQWFHEACVQCLQKPMLFGDRFYTFICSVCSSGPEYLKRLPLQWVDIAHLCLYNLSVIHKKKYFDSELELMTYINENWDRLHPGELADTPKSERYEHVLEALNDYKTMFMSGKEIKKKKHLFGLRIRVPPVPPNVAFKAEKEPEGTSHEFKIKGRKASKPISDSREVSNGIEKKGKKKSVGRPPGPYTRKMIQKTAEPLLDKESISENPTLDLPCSIGRTEGTAHSSNTSDVDFTGASSAKETTSSSISRHYGLSDSRKRTRTGRSWPAAIPHLRRRRGRLPRRALQTQNSEIVKDDEGKEDYQFDELNTEILNNLADQELQLNHLKNSITSYFGAAGRIACGEKYRVLARRVTLDGKVQYLVEWEGATAS
With B1, the binding result in assay [1] is “binds”.

B2: ELK1 (other, human, UniProt P19419 1-428, looked up)
chain: MDPSVTLWQFLLQLLREQGNGHIISWTSRDGGEFKLVDAEEVARLWGLRKNKTNMNYDKLSRALRYYYDKNIIRKVSGQKFVYKFVSYPEVAGCSTEDCPPQPEVSVTSTMPNVAPAAIHAAPGDTVSGKPGTPKGAGMAGPGGLARSSRNEYMRSGLYSTFTIQSLQPQPPPHPRPAVVLPSAAPAGAAAPPSGSRSTSPSPLEACLEAEEAGLPLQVILTPPEAPNLKSEELNVEPGLGRALPPEVKVEGPKEELEVAGERGFVPETTKAEPEVPPQEGVPARLPAVVMDTAGQAGGHAASSPEISQPQKGRKPRDLELPLSPSLLGGPGPERTPGSGSGSGLQAPGPALTPSLLPTHTLTPVLLTPSSLPPSIHFWSTLSPIAPRSPAKLSFQFPSSGSAQVHIPSISVDGLSTPVVLSPGPQKP
B2: in assay [2], the binding result is given as “binds”.

B3: SOX7 fused to BioID2 (BirA from Aquifex aeolicus) and FLAG (other, human;Aquifex aeolicus, UniProt Q9BT81 1-388, looked up)
chain: MASLLGAYPWPEGLECPALDAELSDGQSPPAVPRPPGDKGSESRIRRPMNAFMVWAKDERKRLAVQNPDLHNAELSKMLGKSWKALTLSQKRPYVDEAERLRLQHMQDYPNYKYRPRRKKQAKRLCKRVDPGFLLSSLSRDQNALPEKRSGSRGALGEKEDRGEYSPGTALPSLRGCYHEGPAGGGGGGTPSSVDTYPYGLPTPPEMSPLDVLEPEQTFFSSPCQEEHGHPRRIPHLPGHPYSPEYAPSPLHCSHPLGSLALGQSPGVSMMSPVPGCPPSPAYYSPATYHPLHSNLQAHLGQLSPPPEHPGFDALDQLSQVELLGDMDRNEFDQYLNTPGHPDSATGAMALSGHVPVSQVTPTGPTETSLISVLADATATYYNSYSVS
notes: Tetracycline-inducible bait in HEK293 Flp-In T-REx cells; not shown: BioID2 biotin ligase (BirA from Aquifex aeolicus), C-terminal tag
On to B3, for which the binding result in the assay with CBP and with p300 was “binds” each time.
